Source: the supplement of paper PMC10567573

B1: ALDH8A1 (parent)
chain: FTGSQPTAERITQLSAPHCKKLSL

Variants of: B1
Experiment: protein stability index of a GFP-peptide fusion (GPS, HEK-293T) (PSI 1-6); higher = more stable
Settings: c terminus: a fixed tail appended
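Further: lentivirally expressed fusions sorted by FACS into six bins by GFP to DsRed ratio, PSI derived from sequencing read proportions per bin multiplied by bin number.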

Protein stability index, by site and new letter:
A16: F 2.33 | Y 2.05 | D 2.52 | N 2.58 | C 1.55 | H 2.13 | G 2.5 | M 1.91 | L 2.17 | E 2.26 | R 2.43 | Q 2.1 | I 2.25 | T 2.63 | W 1.45 | S 2.17 | P 2.39 | V 2.27 | K 2.03
P6: V 2.07 | C 2.42 | N 2.71 | T 1.77 | M 2.56 | K 2.7 | Y 1.92 | E 2.79 | R 2.15 | F 1.9 | G 1.96 | I 2.07 | L 2.04 | A 1.94 | Q 2.38 | W 3.07 | H 2.25 | S 2.1 | D 2.43
R10: Y 1.65 | P 2.7 | Q 2.17 | L 2.11 | S 2.42 | W 1.93 | V 1.63 | C 1.94 | K 1.81 | G 2.28 | N 2.6 | F 1.9 | H 2.3 | I 1.92 | M 1.97 | A 2.31 | E 2.51 | D 2.31 | T 2.39
G3: C 2.68 | Y 2.54 | V 2.44 | H 2.4 | L 2.6 | R 2.71 | D 3.15 | K 3.45 | F 1.97 | T 2.69 | I 2.77 | N 2.62 | E 3.56 | A 2.88 | S 2.65 | W 2.66 | M 2.56 | P 2.07 | Q 2.38
L14: C 1.79 | A 2.26 | H 2.58 | D 3.04 | N 2.4 | S 2.76 | R 2.37 | T 2.87 | Y 2.39 | W 2.2 | M 1.86 | F 1.79 | I 2.53 | E 3.18 | G 2.56 | Q 2.57 | P 2.77 | V 1.9 | K 2.73
S15: G 2.5 | H 1.85 | Y 3.69 | N 1.91 | D 2.18 | R 1.71 | E 2.37 | K 1.84 | P 2.32 | I 2.28 | L 2.87 | M 2.13 | A 2.39 | V 2.36 | C 2.34 | Q 2.09 | T 2.25 | F 3.03 | W 2.39
H18: G 2.05 | T 2.31 | I 2.55 | L 2.46 | M 2.24 | A 2.05 | S 2.74 | Q 2.29 | Y 2.14 | C 1.94 | K 2.34 | W 1.85 | V 3 | P 2.93 | D 3.24 | E 1.78 | N 2.11 | R 2.55 | F 2.25
S4: C 2.31 | L 2.1 | V 2.75 | Q 2.02 | G 1.7 | D 3.06 | F 2.03 | R 1.62 | T 2.69 | A 2.56 | K 2.6 | E 3.18 | W 3.16 | Y 2.22 | I 2.36 | N 2.21 | M 1.98 | P 2.67 | H 2.59
C19: A 2.35
Q5: K 2.06 | T 2.24 | R 2.39 | S 3.01 | H 2.14 | D 2.19 | N 2.33 | Y 2.36 | G 2.15 | V 2.38 | E 2.57 | F 1.68 | W 4.02 | L 1.65 | I 2.39 | P 2.99 | A 2.08 | C 2.45 | M 2.19
A8: D 2.16 | S 1.9 | M 2.58 | R 2.6 | H 2.61 | Y 2.27 | N 2.09 | V 2.45 | I 2.46 | P 2.3 | G 2.95 | C 2.09 | L 2.42 | E 2.6 | F 1.42 | T 2.24 | K 1.8 | W 3.71 | Q 2.4
Q13: I 1.35 | K 2.48 | V 1.69 | E 2.5 | R 1.91 | C 2 | S 2.12 | W 2.67 | A 2.31 | F 2.94 | D 2.61 | M 2.03 | N 2.2 | L 2.08 | P 2.16 | G 2.31 | Y 1.97 | H 2.24 | T 2.3
T2: Q 3.24 | F 2.89 | E 3.86 | I 2.07 | N 3.41 | Y 3.35 | R 3.37 | V 1.02 | H 2.2 | W 2.53 | L 2.74 | G 3.19 | C 1.86 | A 2.38 | K 3.42 | M 3.07 | D 3.95 | P 3.41 | S 3.11
P17: G 2.25 | S 2.18 | E 2.77 | D 2.8 | Q 2.48 | L 1.78 | V 1.96 | T 2.24 | F 1.85 | A 2.49 | C 2.13 | Y 2.05 | N 2.55 | W 2.46 | K 2.12 | H 2.34 | I 2.38 | R 2.49 | M 2.04
E9: Q 2.09 | A 1.96 | P 2.05 | K 2.06 | H 2.15 | F 2.74 | D 2.52 | R 1.96 | G 2.1 | W 3.33 | I 2.23 | Y 3.14 | S 1.86 | M 1.37 | L 3.09 | N 1.99 | T 1.87 | C 2.14 | V 1.46
I11: Q 2.49 | N 2.4 | K 1.93 | M 2.61 | D 3.39 | L 2.15 | V 2.44 | E 2.73 | P 3.32 | F 2.9 | G 2.09 | S 2.22 | H 2.96 | C 2.6 | W 2.08 | Y 2.18 | R 2.81 | T 2.84 | A 2.48
F1: P 4.14 | M 3.62 | W 3.35 | V 3.82 | T 4.27 | R 3.78 | Q 4.31 | S 3.92 | Y 2.47 | N 4.34
T7: S 2.08 | F 2.99 | Y 2.61 | C 2 | A 3.05 | D 2.98 | L 2.27 | M 2.12 | H 2.02 | K 2.32 | V 2 | R 2.55 | W 1.2 | E 2.62 | I 2.39 | G 2.11 | P 2.67 | N 2.83 | Q 2.86
T12: R 2.89 | P 2.32 | F 2.86 | G 2.27 | S 2.79 | Q 2.36 | H 1.84 | K 2.3 | E 3.25 | M 2 | N 2.25 | I 1.51 | D 2.32 | L 1.79 | C 1.83 | A 2.21 | Y 2.69 | V 2.15 | W 3.11
